Experiment [1] deals with integrin αvβ3 on chick embryo sternal chondrocytes (chick) (UniProt P26008). Nature of the experiment: cell-based or functional assay.
Experiment [2] addresses latent TGF-β1 released by human OA cartilage explants (human) (UniProt P01137). Nature of the experiment: cell-based or functional assay.

Drawing on patent US20100015129A1, this text covers decrease in AP activity of F-spondin transfected, RA stimulated chick chondrocytes, active TGF-β1 in OA cartilage explant supernatants (ELISA) and active TGF-β1 in OA cartilage explant supernatants (ELISA) (pg/g cartilage) for 2 substances.

latent TGF-β1 released by human OA cartilage explants (human), sequence (P01137 30-390 limits assumed): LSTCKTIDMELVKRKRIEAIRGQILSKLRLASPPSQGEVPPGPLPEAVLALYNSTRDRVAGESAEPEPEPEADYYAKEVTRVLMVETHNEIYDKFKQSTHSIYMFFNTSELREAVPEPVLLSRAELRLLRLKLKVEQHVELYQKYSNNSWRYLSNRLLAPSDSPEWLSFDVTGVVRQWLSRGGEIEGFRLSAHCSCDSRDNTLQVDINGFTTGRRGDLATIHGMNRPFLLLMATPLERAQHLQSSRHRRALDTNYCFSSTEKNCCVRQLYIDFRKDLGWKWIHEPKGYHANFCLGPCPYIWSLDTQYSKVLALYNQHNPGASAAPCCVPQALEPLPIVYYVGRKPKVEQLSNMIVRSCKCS
integrin αvβ3 on chick embryo sternal chondrocytes (chick), sequence (P26008 20-1034): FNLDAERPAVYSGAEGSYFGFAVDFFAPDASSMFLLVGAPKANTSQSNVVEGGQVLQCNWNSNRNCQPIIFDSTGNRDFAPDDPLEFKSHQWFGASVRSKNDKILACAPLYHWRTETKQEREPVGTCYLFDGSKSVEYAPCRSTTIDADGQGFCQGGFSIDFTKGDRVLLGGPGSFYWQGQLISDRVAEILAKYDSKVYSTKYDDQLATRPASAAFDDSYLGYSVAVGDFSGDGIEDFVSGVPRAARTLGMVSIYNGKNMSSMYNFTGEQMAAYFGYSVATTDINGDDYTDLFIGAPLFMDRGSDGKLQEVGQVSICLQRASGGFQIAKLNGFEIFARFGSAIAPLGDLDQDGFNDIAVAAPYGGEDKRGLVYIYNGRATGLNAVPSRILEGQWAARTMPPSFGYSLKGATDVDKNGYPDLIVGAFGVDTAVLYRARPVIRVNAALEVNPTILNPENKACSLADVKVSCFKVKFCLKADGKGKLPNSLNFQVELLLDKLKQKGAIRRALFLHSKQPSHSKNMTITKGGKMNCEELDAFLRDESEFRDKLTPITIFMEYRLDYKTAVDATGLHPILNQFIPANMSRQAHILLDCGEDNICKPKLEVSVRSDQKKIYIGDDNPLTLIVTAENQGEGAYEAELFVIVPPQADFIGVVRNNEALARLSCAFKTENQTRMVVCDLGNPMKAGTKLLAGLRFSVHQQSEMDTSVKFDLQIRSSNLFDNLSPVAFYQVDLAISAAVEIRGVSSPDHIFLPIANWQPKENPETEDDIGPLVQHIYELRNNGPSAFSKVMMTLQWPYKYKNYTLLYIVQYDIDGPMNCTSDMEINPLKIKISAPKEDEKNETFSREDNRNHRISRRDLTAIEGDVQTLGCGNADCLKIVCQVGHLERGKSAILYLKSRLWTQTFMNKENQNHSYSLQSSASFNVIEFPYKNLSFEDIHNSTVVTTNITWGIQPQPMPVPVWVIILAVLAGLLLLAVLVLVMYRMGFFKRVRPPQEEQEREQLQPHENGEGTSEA

Substance “LM609, integrin αvβ3 blocking antibody (Chemicon International, Cat No MAB1976Z)” returned a decrease in AP activity of F-spondin transfected, RA stimulated chick chondrocytes in experiment [1] of 50%. For “recombinant human F-spondin (R&D systems) (from UniProt Q9HCB6 29-807) (ligand)”, in experiment [2], the active TGF-β1 in OA cartilage explant supernatants (ELISA) turned out to be 225% and the active TGF-β1 in OA cartilage explant supernatants (ELISA) (pg/g cartilage) is 550.
